Experimental data: patent publication US20140072613A1, “Compositions and Methods for Treating Cutaneous Scarring” (priority 2012, published 2014)

Experiments:
Assay in all cases: biochemical
Assay type in all cases: biochemical
266 human kinases [1] = target: 266 human kinases (Homo sapiens, UniProt P50613); details: CDK7/cyclinH/MAT1(h); 100 μM
How it was run: (§1)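 Kinase phosphorylates cationic substrate with radiolabelled ATP phosphate; substrate retained on anionic filter membrane; scintillation count; % of 100% activity control.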

266 human kinases [2] = target: 266 human kinases (Homo sapiens, UniProt Q96GD4); details: Aurora-B(h); 100 μM
How it was run: as §1

266 human kinases [3] = target: 266 human kinases (Homo sapiens, UniProt Q07912); details: ACK1(h); 100 μM
How it was run: as §1

266 human kinases [4] = target: 266 human kinases (Homo sapiens, UniProt P54646); details: AMPKα2(h); 100 μM
How it was run: as §1

266 human kinases [5] = target: 266 human kinases (Homo sapiens, UniProt P51955); details: NEK2(h); 100 μM
Chain of 266 human kinases (Homo sapiens, UniProt P51955) (P51955 whole entry): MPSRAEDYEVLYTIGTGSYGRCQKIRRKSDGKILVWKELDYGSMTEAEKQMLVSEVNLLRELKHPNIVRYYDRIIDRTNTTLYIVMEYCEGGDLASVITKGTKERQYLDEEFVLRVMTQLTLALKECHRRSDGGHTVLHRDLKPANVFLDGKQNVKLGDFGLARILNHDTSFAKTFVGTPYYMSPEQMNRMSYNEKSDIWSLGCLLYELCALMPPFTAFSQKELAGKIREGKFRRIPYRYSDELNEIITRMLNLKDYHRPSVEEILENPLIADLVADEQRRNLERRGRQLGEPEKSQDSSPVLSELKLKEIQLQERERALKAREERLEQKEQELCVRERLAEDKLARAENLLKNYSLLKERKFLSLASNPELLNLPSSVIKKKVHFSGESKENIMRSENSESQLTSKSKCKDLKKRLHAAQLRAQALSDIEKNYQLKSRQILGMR
How it was run: as §1

266 human kinases [6] = target: 266 human kinases (Homo sapiens, UniProt O15530); details: PDK1(h); 100 μM
How it was run: as §1

266 human kinases [7] = target: 266 human kinases (Homo sapiens, UniProt P11362); details: FGFR1(h); 100 μM
Chain of 266 human kinases (Homo sapiens, UniProt P11362) (P11362 22-822): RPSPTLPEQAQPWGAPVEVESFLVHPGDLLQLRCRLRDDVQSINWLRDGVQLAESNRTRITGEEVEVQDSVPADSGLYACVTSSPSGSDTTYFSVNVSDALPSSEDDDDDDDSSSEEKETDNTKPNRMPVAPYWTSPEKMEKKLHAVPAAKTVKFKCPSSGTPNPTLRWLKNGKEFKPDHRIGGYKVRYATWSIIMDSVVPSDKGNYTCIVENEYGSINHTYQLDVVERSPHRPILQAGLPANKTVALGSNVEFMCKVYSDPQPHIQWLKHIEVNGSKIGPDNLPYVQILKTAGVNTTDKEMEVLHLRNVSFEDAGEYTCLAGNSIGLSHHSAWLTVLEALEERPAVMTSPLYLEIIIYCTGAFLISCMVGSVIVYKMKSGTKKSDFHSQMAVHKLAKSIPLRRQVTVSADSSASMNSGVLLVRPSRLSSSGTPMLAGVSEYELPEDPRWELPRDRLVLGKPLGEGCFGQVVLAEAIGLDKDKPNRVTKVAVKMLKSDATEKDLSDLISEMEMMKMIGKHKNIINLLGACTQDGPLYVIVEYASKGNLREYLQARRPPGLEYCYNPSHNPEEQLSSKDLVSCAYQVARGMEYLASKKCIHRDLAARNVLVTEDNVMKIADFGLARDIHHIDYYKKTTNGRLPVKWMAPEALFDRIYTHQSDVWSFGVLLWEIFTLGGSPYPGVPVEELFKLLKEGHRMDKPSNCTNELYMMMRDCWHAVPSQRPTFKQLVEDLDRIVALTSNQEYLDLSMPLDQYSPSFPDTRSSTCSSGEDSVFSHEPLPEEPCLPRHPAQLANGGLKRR
How it was run: as §1

266 human kinases [8] = target: 266 human kinases (Homo sapiens, UniProt P31751); details: PKBβ(h); 100 μM
How it was run: as §1

266 human kinases [9] = target: 266 human kinases (Homo sapiens, UniProt P08581, M1250T); details: Met(M1268T)(h); 100 μM
How it was run: as §1

266 human kinases [10] = target: 266 human kinases (Homo sapiens, UniProt Q92630); details: DYRK2(h); 100 μM
Chain of 266 human kinases (Homo sapiens, UniProt Q92630) (Q92630 whole entry): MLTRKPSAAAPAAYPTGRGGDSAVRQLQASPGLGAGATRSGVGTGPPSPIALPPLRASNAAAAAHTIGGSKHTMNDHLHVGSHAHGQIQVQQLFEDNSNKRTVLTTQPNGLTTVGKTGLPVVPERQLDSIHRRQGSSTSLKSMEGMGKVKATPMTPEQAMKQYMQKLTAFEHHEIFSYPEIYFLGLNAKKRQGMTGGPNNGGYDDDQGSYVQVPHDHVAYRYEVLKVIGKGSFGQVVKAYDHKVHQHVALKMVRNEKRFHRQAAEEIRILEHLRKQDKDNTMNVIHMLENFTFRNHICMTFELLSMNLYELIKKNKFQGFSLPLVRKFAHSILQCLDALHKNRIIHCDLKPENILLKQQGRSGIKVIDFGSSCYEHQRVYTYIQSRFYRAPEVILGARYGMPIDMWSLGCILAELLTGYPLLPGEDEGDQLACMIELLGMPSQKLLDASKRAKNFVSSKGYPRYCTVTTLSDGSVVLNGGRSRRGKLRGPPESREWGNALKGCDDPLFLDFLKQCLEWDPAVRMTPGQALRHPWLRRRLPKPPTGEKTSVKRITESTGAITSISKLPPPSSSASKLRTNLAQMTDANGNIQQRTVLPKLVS
How it was run: as §1

266 human kinases [11] = target: 266 human kinases (Homo sapiens, UniProt P00533, L858R/T790M); details: EGFR(T790M,L858R)(h); 100 μM
How it was run: as §1

266 human kinases [12] = target: 266 human kinases (Homo sapiens, UniProt O96013); details: PAK4(h); 100 μM
How it was run: as §1

266 human kinases [13] = target: 266 human kinases (Homo sapiens, UniProt P07949); details: Ret(h); 100 μM
How it was run: as §1

266 human kinases [14] = target: 266 human kinases (Homo sapiens, UniProt P35968); details: KDR(h); 100 μM
Chain of 266 human kinases (Homo sapiens, UniProt P35968) (P35968 20-1356): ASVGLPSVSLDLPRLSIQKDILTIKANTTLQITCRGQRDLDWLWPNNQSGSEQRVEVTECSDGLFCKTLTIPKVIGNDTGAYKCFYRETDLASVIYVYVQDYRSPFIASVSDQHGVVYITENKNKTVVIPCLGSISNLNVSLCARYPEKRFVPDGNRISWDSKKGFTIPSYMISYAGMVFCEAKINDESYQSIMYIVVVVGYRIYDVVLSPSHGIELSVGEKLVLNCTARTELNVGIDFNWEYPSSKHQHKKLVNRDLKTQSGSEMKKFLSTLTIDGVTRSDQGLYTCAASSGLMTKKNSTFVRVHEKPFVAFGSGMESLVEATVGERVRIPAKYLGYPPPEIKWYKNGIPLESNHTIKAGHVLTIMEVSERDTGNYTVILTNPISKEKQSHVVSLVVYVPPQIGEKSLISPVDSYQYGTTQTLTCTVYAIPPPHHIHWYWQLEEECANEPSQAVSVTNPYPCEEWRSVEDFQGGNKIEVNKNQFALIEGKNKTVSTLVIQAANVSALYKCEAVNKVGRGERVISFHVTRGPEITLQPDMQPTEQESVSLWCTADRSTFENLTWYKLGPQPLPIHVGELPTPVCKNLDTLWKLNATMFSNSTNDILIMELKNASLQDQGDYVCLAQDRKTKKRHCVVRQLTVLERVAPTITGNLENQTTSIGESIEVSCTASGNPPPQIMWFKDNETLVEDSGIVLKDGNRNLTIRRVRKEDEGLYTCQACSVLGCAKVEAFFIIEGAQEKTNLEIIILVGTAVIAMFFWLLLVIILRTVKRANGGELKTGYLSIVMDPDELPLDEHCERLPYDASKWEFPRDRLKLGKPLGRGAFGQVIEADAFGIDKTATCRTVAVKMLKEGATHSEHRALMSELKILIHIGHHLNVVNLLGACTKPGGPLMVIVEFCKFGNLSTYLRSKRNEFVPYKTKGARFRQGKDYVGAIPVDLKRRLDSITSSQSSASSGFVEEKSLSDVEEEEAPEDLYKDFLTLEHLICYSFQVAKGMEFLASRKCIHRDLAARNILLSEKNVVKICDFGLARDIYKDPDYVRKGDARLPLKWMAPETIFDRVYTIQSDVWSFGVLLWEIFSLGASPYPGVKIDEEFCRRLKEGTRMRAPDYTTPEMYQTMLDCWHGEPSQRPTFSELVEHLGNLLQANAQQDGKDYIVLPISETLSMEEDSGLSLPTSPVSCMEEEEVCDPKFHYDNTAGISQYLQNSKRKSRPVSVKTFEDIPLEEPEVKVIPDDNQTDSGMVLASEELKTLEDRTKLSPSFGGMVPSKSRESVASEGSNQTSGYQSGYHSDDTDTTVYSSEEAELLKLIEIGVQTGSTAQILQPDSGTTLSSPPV
How it was run: as §1

266 human kinases [15] = target: 266 human kinases (Homo sapiens, UniProt Q15759); details: SAPK2b(h); 100 μM
Chain of 266 human kinases (Homo sapiens, UniProt Q15759) (Q15759 whole entry): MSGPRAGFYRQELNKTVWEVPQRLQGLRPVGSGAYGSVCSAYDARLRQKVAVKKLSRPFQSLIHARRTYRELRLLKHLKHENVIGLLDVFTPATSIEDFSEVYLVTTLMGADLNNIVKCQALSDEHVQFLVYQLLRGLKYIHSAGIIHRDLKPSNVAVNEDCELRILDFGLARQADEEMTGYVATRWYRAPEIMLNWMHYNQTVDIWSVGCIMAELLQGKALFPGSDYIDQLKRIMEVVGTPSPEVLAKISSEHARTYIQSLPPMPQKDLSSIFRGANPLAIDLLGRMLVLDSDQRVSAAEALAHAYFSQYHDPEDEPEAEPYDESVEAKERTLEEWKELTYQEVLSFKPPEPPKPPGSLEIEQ
How it was run: as §1

266 human kinases [16] = target: 266 human kinases (Homo sapiens, UniProt P09619); details: PDGFRβ(h); 100 μM
How it was run: as §1

266 human kinases [17] = target: 266 human kinases (Homo sapiens, UniProt P49761); details: CLK3(h); 100 μM
How it was run: as §1

266 human kinases [18] = target: 266 human kinases (Homo sapiens, UniProt P17252); details: PKCα(h); 100 μM
How it was run: as §1

266 human kinases [19] = target: T1, 266 human kinases (Homo sapiens, UniProt Q96PF2); details: TSSK2(h); 100 μM
T1 sequence (Q96PF2 1-358): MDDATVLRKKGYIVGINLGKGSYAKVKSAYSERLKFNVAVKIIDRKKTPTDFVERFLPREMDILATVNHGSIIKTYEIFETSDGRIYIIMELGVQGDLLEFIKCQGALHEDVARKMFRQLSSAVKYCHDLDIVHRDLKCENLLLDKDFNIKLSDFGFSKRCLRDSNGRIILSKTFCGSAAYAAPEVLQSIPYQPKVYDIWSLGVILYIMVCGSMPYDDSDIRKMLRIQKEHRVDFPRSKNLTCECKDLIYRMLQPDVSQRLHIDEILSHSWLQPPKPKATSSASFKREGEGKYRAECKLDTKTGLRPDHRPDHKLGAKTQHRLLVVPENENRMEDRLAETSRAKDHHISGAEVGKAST
How it was run: as §1

266 human kinases [20] = target: T2, 266 human kinases (Homo sapiens, UniProt Q05513); details: PKCζ(h); 100 μM
T2 sequence (Q05513 1-592): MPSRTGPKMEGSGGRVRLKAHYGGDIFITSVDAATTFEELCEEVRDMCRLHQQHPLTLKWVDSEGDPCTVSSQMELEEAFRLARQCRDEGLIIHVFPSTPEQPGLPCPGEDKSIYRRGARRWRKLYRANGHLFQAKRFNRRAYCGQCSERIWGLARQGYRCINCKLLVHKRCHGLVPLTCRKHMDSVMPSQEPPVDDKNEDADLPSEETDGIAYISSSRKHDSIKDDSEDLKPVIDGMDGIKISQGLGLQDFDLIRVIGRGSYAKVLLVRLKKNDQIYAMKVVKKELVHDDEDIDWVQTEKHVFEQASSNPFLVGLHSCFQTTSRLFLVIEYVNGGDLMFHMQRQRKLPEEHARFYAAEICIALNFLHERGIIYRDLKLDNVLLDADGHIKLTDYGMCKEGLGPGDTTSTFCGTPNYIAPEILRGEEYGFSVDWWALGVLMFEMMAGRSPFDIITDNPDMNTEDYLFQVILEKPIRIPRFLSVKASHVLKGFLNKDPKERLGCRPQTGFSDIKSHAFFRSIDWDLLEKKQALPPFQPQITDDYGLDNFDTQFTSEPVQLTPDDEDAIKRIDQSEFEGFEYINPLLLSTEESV
How it was run: as §1

266 human kinases [21] = target: 266 human kinases (Homo sapiens, UniProt P53779); details: JNK3(h); 100 μM
How it was run: as §1

266 human kinases [22] = target: 266 human kinases (Homo sapiens, UniProt P43250); details: GRK6(h); 100 μM
How it was run: as §1

266 human kinases [23] = target: 266 human kinases (Homo sapiens, UniProt Q16513); details: PRK2(h); 100 μM
Chain of 266 human kinases (Homo sapiens, UniProt Q16513) (Q16513 whole entry): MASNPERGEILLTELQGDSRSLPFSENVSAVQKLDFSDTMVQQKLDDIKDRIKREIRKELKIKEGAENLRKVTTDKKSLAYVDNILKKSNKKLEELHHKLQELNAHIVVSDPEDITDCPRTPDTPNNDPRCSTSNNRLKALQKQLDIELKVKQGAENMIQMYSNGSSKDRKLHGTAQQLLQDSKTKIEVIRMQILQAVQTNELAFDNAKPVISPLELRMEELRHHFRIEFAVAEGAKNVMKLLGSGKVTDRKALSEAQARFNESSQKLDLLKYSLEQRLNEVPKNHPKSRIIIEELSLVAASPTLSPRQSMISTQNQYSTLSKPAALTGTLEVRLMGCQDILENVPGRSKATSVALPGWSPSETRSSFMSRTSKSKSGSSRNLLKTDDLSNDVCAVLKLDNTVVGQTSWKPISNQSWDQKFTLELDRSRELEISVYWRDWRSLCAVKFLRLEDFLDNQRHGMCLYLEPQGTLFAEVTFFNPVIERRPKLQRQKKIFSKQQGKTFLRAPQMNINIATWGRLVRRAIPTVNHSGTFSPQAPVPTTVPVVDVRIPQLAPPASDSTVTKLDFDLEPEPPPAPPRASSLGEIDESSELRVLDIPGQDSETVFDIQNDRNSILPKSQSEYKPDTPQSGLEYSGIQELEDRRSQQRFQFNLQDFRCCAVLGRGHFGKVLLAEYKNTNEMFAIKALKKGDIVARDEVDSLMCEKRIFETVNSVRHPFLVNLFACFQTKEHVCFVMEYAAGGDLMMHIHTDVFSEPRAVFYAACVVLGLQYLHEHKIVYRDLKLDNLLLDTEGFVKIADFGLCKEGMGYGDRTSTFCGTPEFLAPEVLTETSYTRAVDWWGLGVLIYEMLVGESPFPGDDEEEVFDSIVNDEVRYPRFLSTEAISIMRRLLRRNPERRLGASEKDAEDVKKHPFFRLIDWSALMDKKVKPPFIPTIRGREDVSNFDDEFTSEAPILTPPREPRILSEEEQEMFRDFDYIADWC
How it was run: as §1

Chain of 266 human kinases (Homo sapiens, UniProt P50613) (P50613 whole entry): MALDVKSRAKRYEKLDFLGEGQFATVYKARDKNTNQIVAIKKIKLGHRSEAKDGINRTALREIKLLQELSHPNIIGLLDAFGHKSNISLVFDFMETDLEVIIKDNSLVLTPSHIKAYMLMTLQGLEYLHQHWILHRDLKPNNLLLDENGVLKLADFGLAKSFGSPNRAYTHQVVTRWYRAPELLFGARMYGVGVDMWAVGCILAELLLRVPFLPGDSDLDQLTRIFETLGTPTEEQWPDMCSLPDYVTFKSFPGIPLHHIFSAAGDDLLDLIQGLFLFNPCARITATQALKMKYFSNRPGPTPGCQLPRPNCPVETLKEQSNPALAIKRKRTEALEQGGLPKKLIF

HRRIKAWLKKIKALARQLGVAA (mammal) [MMI-0500]
% activity (266 human kinases [1]): 15%
% activity (266 human kinases [2]): 5%
% activity (266 human kinases [3]): 64%
% activity (266 human kinases [4]): 9%
% activity (266 human kinases [5]): 0%
% activity (266 human kinases [6]): 178%
% activity (266 human kinases [7]): 18%
% activity (266 human kinases [8]): 21%
% activity (266 human kinases [9]): 239%
% activity (266 human kinases [10]): 127%
% activity (266 human kinases [11]): 53%
% activity (266 human kinases [12]): 86%
% activity (266 human kinases [13]): 174%
% activity (266 human kinases [14]): 15%
% activity (266 human kinases [15]): 42%
% activity (266 human kinases [16]): 40%
% activity (266 human kinases [17]): 76%
% activity (266 human kinases [18]): 3%
% activity (266 human kinases [19]): 92%
% activity (266 human kinases [20]): 7%
% activity (266 human kinases [21]): 171%
% activity (266 human kinases [22]): 174%
% activity (266 human kinases [23]): 7%

YARAAARQARAKALNRQLGVA (mammal) [MMI-0200]
% activity (266 human kinases [1]): 67%
% activity (266 human kinases [2]): 166%
% activity (266 human kinases [3]): 97%
% activity (266 human kinases [4]): 88%
% activity (266 human kinases [5]): 97%
% activity (266 human kinases [6]): 143%
% activity (266 human kinases [7]): 97%
% activity (266 human kinases [8]): 250%
% activity (266 human kinases [9]): 143%
% activity (266 human kinases [10]): 142%
% activity (266 human kinases [11]): 108%
% activity (266 human kinases [12]): 98%
% activity (266 human kinases [13]): 96%
% activity (266 human kinases [14]): 110%
% activity (266 human kinases [15]): 95%
% activity (266 human kinases [16]): 137%
% activity (266 human kinases [17]): 76%
% activity (266 human kinases [18]): 100%
% activity (266 human kinases [19]): 91%
% activity (266 human kinases [20]): 98%
% activity (266 human kinases [21]): 90%
% activity (266 human kinases [22]): 132%
% activity (266 human kinases [23]): 74%
